Key:
[1] = biological target: T1, His6C-CoxC (LytTR DNA-binding domain) (Afipia carboxidovorans OM5) (UniProt Q9KX27); test: EMSA; conditions: EMSA: 20 mM Tris-HCl pH 7.5, 50 mM KCl, 2 mM beta-mercaptoethanol, 10% glycerol, 250 ug/ml BSA, 50 ug/ml salmon sperm DNA, 1 mM DTT, 1 mM dithionite, 2 ng …
T1 sequence: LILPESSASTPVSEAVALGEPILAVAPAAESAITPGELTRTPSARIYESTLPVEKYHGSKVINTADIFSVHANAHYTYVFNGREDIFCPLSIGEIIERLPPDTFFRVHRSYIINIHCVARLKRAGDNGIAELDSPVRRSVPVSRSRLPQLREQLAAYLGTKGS

[2] = tested on: His6C-CoxC (LytTR DNA-binding domain) (Afipia carboxidovorans OM5); test: EMSA; conditions: EMSA: 20 mM Tris-HCl pH 7.5, 50 mM KCl, 2 mM beta-mercaptoethanol, 10% glycerol, 250 ug/ml BSA, 50 ug/ml salmon sperm DNA, 1 mM DTT, 1 mM dithionite, 2 ng …

Substance	Kd [1] [nM]	binding [1]	Kd [2] [nM]
AATTCCAGTTCATGCGTATGTTACCGCCGTTGGTGGAATTTGGAAGTCGTTTGGGCAAAAGCCTTTGATGCTGCTTTGCGGCAACTTCTATCGTGCCCCACGAACGTCGCATCATAAGAAATGTGACGCCCGGGGGGGACAACGCAAATGGGTTGCGAAAATATGCAGGCGCGGCAAGCACCGTGTCGCCAAGCTAGGCATTTGGCTCAAACTGTCCCCTCGAAGCTCTCTTCAACTGCTGCAAAGCATCGACCGCATTTTCGCGGACGATATTGGGATCCCG (double strand) [PcoxB]	25	binds	–
PcoxB	–	–	25

Reference: paper PMC11347149
